Measured values as given in patent US20080096792A1 (SEOUL NATIONAL UNIVERSITY INDUSTRY FOUNDATION, published 2008).

How the values were obtained:
[1] = target: integrin α3β1 on HOK-16B cells (human (HOK-16B human oral keratinocytes)) (UniProt P26006); assay: cell-based or functional assay
[2] = target: integrin α3β1 on HOK-16B cells (human (HOK-16B human oral keratinocytes), UniProt P26006 33-1051; P05556 21-798); assay: cell-based or functional assay
integrin α3β1 on HOK-16B cells, sequence (P26006 33-1051, chain 1 of 2): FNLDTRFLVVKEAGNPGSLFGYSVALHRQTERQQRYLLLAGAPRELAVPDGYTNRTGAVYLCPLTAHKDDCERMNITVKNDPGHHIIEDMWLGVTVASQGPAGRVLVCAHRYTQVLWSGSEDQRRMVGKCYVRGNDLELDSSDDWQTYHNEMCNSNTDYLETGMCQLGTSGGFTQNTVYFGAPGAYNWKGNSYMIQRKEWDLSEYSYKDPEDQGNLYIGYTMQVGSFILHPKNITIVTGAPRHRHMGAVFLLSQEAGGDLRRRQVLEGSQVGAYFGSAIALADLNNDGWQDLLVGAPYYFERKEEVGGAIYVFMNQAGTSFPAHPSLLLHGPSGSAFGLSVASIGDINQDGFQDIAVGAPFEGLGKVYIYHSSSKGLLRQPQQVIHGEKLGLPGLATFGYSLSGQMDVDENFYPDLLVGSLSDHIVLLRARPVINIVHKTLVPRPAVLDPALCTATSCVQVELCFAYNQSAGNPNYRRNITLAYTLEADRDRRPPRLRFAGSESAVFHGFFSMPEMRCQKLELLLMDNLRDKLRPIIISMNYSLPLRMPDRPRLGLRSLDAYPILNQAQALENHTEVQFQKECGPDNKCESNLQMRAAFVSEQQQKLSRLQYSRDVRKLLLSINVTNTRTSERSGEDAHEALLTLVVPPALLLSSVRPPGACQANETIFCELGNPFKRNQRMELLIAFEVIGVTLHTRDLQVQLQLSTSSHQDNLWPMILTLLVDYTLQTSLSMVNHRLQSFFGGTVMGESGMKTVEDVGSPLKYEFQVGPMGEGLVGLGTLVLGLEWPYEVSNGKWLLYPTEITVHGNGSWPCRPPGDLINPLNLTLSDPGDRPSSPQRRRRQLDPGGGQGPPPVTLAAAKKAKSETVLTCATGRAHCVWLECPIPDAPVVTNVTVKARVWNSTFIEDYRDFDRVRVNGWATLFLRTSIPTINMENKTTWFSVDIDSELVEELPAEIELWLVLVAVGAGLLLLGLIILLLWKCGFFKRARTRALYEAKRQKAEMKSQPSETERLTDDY
integrin α3β1 on HOK-16B cells, sequence (P05556 21-798, chain 2 of 2): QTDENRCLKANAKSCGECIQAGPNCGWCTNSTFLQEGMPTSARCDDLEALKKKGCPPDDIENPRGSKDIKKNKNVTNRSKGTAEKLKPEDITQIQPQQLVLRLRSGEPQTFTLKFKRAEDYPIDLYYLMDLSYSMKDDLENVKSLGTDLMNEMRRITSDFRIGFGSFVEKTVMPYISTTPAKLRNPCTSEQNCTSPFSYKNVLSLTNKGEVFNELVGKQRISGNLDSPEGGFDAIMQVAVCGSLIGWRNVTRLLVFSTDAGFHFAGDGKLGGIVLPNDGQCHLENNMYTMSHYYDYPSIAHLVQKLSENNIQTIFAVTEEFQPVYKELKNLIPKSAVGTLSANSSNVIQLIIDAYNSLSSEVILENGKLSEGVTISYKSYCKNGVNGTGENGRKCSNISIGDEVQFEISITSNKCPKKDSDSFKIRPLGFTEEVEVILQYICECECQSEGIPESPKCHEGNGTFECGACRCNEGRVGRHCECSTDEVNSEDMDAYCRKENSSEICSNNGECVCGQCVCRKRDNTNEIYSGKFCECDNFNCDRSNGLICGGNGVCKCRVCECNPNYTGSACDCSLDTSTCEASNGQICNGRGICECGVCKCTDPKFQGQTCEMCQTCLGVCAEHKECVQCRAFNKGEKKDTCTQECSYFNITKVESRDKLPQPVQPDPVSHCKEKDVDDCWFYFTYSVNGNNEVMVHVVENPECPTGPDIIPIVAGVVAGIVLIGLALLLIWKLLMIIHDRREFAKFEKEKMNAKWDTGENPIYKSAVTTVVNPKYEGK

integrin α3β1 on HOK-16B cells (human (HOK-16B human oral keratinocytes)), sequence (P26006 33-1051, chain 1 of 2): as the sequence (P26006 33-1051, chain 1 of 2) above
integrin α3β1 on HOK-16B cells (human (HOK-16B human oral keratinocytes)), sequence (P05556 21-798, chain 2 of 2, further chain): as the sequence (P05556 21-798, chain 2 of 2) above

For human placental laminin (LN) (ligand), the FAK phosphorylation at Tyr-397 in HOK-16B cells, fold induction compared with the untreated control [1] was 16.2 fold.

B1: recombinant LG3 protein of the human laminin-5 α3 chain (rLG3-His6) (ligand)
chain: MRGSHHHHHHGMASMTGGQQMGRDLTDDDDKDPSSRSAAGTMEFDFVRLNDTVGVTKKCSEDWKLVRSASFSRGGQLSFTDLGLPPTDHLQASFGFQTFQPSGILLDHQTWTRNLQVTLEDGYIELSTSDSGGPIFKSPQTYMDGLLHYVSVISDNSGLRLLIDDQLLRNSKRLKHISSSRQSLRLGGSNFEGCISNVFVQRLSLSPEVLDLTSNSLKRDVSLGGCSLNKPPFLMLLKGSTRFNKTKTFRINQLLQDTPVASPRSVKVWQDACSPLPKTQANHESLVNSLLDPAANKARKVAELAAATAEQ
In the case of B1, the “FAK phosphorylation at Tyr-397 in HOK-16B cells, fold induction compared with the untreated control” value [2] is reported as 8.2 fold.
